Numbering of substitutions follows the chain as printed.
Legend:
[1] = target: T1, Murine serum albumin (MSA) (mouse, UniProt P07724 25-608); assay: ELISA on coated murine albumin, anti-human Fc HRP, A650, one site-total binding fit
T1 construct: Bought protein (Sigma); also called murine albumin; mouse albumin
Experimental: (§1) Medisorp plates were coated with albumin protein at 2 μg/ml, 50 μl/well at 4° C. overnight (human, murine, and rat albumin-Sigma, cynomolgus monkey albumin-Abcam). 1× Fish Gelatin (blocking agent, Bethyl Laboratories) was added to albumin-coated wells followed by a 1 hour incubation at RT. Titrations of sdAb fusion proteins (starting at 100 nM, across 1:3 or down 1:4) were added and incubated for 1 hour at RT. Plates were washed 3 times with 0.1% D-PBST, and then anti-human Fc HRP antibody (1:2000 in 0.1% D-PBST, Jackson) was added and incubated for 30 minutes at RT. Plates were washed 3 times with 0.1% D-PBST, and then TMB substrate was added. Absorbance at 650 nm was read on a plate reader (Molecular Devices) and data were plotted using equation one site-total binding (Model: Y=Bmax*X/(Kd+X)+NS*X+Background, GraphPad Prism).

Rat serum albumin (RSA) [2] = target: T2, Rat serum albumin (RSA) (rat, UniProt P02770 25-608); assay: ELISA on coated rat albumin, anti-human Fc HRP, A650, one site-total binding fit
T2 construct: Bought protein (Sigma); also called rat albumin
T2 sequence (P02770 25-608): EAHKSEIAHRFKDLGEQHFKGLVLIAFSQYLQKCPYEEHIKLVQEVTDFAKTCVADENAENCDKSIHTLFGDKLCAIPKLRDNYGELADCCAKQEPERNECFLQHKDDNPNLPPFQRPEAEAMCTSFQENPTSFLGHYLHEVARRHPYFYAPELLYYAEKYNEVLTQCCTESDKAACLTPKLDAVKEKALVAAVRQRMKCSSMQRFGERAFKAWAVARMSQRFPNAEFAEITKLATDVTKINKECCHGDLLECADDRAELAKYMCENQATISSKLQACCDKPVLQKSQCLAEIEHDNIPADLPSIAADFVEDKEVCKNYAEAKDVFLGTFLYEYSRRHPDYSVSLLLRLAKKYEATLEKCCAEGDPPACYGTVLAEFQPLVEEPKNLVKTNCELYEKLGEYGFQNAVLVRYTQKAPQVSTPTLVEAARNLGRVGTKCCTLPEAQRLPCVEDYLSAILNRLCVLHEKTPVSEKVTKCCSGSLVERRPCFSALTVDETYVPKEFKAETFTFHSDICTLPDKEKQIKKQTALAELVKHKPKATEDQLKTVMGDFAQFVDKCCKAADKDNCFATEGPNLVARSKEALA
Experimental: as §1

[3] = target: T3, Human serum albumin (HSA) (human, UniProt P02768 25-609); assay: ELISA on coated human albumin, anti-human Fc HRP, A650, one site-total binding fit
T3 construct: also called human albumin; recombinant human albumin
T3 sequence (P02768 25-609): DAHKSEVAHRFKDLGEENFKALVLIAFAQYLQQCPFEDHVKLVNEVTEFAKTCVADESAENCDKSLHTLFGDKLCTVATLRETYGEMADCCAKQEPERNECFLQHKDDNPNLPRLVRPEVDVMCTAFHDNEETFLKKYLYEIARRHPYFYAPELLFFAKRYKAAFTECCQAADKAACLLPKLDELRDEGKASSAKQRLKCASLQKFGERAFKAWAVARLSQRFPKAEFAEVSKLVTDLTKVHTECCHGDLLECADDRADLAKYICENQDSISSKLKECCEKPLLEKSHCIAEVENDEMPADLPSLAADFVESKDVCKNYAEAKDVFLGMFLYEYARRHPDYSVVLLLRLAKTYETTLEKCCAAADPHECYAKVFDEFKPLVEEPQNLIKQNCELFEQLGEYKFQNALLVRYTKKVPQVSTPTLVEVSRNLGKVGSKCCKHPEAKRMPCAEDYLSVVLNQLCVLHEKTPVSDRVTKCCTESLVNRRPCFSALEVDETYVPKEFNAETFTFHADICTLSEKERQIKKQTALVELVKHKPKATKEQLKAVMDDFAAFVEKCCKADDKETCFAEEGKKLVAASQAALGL
Experimental: as §1

[4] = target: T4, Cynomolgus monkey serum albumin (CSA) (cynomolgus monkey, UniProt A2V9Z4 25-608); assay: ELISA on coated cynomolgus monkey albumin, anti-human Fc HRP, A650, one site-total binding fit
T4 construct: Bought protein (Abcam); also called cynomolgus monkey albumin
T4 sequence (A2V9Z4 25-608): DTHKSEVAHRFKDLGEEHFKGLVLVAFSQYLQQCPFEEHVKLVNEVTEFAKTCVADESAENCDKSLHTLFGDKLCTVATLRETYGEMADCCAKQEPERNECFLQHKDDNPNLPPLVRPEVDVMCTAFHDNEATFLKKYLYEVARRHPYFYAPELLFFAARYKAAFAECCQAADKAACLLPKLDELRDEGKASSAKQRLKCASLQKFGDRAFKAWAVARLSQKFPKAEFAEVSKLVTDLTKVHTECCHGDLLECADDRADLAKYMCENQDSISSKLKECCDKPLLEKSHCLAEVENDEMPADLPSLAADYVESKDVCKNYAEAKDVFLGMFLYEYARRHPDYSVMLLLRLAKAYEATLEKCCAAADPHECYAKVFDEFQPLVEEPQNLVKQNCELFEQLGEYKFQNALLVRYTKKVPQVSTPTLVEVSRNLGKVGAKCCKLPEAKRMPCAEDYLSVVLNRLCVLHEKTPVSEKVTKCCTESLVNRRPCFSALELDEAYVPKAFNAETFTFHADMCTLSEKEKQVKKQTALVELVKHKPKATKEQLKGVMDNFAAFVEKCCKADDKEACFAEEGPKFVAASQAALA
Experimental: as §1

[5] = target: T1, Murine serum albumin (MSA); assay: ELISA, albumin coated, sdAb fusion titrated, anti-human Fc HRP
Experimental: as §1

[6] = target: T3, Human serum albumin (HSA); assay: as above
Experimental: as §1

[7] = target: T4, Cynomolgus monkey serum albumin (CSA); assay: as above
Experimental: as §1

Rat serum albumin (RSA) [8] = target: T2, Rat serum albumin (RSA); assay: as above
Experimental: as §1

[9] = target: T3, Human serum albumin (HSA); assay: ELISA on coated human albumin, anti-human Fc HRP, A650, one site-total binding fit; remark: listed apart in the source
Experimental: as §1

[10] = target: T4, Cynomolgus monkey serum albumin (CSA); assay: ELISA on coated cynomolgus monkey albumin, anti-human Fc HRP, A650, one site-total binding fit; remark: listed apart in the source
Experimental: as §1

[11] = target: T1, Murine serum albumin (MSA); assay: ELISA on coated murine albumin, anti-human Fc HRP, A650, one site-total binding fit; remark: listed apart in the source
Experimental: as §1

Rat serum albumin (RSA) [12] = target: T2, Rat serum albumin (RSA); assay: ELISA on coated rat albumin, anti-human Fc HRP, A650, one site-total binding fit; remark: listed apart in the source
Experimental: as §1

[13] = target: T3, Human serum albumin (HSA); assay: ELISA on coated human albumin, pH 5.5, HRP detection antibody, A450
Experimental: (§2) 96-well ELISA plates were coated with albumin protein in PBS overnight at 4° C., washed with PBS-T and then blocked with 5% milk powder in PBS-T for 1 h at room temperature. Serial dilutions of test articles were prepared in PBS pH 7.4 or a buffer containing 20 mM His, 150 mM NaCl, pH 5.5 and added to the plates. Plates were incubated for 1 h at room temperature. After the incubation cells were washed in the respective buffer and then incubated for 30 min at room temperature with a HRP-conjugated antibody detecting the polypeptides. Plates were washed in their respective buffers and TMB substrate was added and color allowed to develop. TMB substrate was stopped with an equal volume of stop solution (1M H₂SO₄). Absorbance at 450 nm was measured with a 96 well plate reader.

[14] = target: T5, human FcRn on primary human monocytes (PBMC) (human, UniProt P55899 24-365; P16213 21-119); assay: flow cytometry, fixed and permeabilized human PBMC, gated monocytes, pH 6, AF647 detection antibody
T5 construct: Endogenous FcRn (with endogenous beta-2 microglobulin) in fixed and permeabilized human PBMC; also called FcRn-expressing human monocytes; FcRn on PBMC subpopulations
T5 sequence (P55899 24-365 limits assumed, chain 1 of 2): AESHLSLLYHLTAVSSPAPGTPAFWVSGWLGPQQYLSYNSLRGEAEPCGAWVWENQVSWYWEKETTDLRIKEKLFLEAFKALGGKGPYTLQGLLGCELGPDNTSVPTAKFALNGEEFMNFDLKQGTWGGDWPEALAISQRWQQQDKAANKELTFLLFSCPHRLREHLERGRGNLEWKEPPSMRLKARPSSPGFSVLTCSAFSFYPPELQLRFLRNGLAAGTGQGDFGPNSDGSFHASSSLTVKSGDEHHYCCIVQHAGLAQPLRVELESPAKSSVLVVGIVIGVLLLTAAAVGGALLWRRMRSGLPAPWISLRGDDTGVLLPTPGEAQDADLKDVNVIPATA
T5 sequence (P16213 21-119 limits assumed, chain 2 of 2): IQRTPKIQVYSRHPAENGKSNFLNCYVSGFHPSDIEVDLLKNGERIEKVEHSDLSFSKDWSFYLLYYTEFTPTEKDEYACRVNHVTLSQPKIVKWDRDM
Experimental: (§3) Isolated human PBMC were plated in 96-well plates at 120,000 cells per well and washed with PBS, pH 7.4. Cells were stained with Zombie Aqua to exclude dead cells and with specific fluorescently labeled antibodies against surface lineage markers (CD14, CD16, CD3, CD56, CD19 and HLA-DR) to allow gating on different PBMC subpopulations. After the surface marker staining, cells were fixed and permeabilized using a Foxp3/Transcription Factor Fixation/Permeabilization kit (eBioscience™) according to the manufacturer's recommended protocol. Cells were then resuspended in the buffers described above to generate pH 7.4 or pH 6 conditions and test article staining was carried out as described for CHO cells. After the final wash, binding to FcRn on PBMC subpopulations (Monocytes, B cells or T cells) was measured on a Novocyte-Quanteon Flow Cytometer (Agilent).

[15] = target: T3, Human serum albumin (HSA); assay: ELISA on coated human albumin, pH 7.4, HRP detection antibody, A450
Experimental: as §2

[16] = target: T6, human FcRn extracellular domain (ECD) fused to a transmembrane domain and an intracellular citrine, with … (human); assay: flow cytometry, CHO cells transiently expressing human FcRn ECD-TM-citrine and B2M, pH 6, AF647 detection antibody
T6 construct: also called human FcRn overexpressed on CHO cells; FcRn transfected CHO cells
T6 sequence (chain, as listed by the source limits assumed, chain 1 of 2): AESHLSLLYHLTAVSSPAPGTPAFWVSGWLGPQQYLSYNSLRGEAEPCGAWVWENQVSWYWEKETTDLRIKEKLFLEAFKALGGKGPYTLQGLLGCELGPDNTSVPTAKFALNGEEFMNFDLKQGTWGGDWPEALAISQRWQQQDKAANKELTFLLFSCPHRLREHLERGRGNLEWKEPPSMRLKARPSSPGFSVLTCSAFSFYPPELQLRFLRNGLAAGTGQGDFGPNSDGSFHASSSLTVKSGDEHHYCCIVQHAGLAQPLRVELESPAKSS
T6 sequence (b2m, as listed by the source limits assumed, chain 2 of 2): as the sequence (P16213 21-119 limits assumed, chain 2 of 2) above
Experimental: (§4) Binding of anti-FcRn VHH polypeptides to human FcRn at neutral (7.4) or endosomal (6) pH was tested by flow cytometry using a CHO-based overexpression system or isolated human peripheral blood mononuclear cells (PBMC).
(§5) CHO cells were plated in 96-well plates at 50,000 cells per well and resuspended in PBS, pH 7.4 or a buffer containing 20 mM His, 150 mM NaCl, pH 6. Serial dilutions of test articles were prepared at 2× the final concentration in the buffers described above (pH 7.4 or pH 6) and added to the cell suspensions. Plates were incubated for 60 minutes at 4° C. After the incubation cells were washed in the respective buffer and then incubated for 30 minutes at 4° C. with a fluorescently labeled (AF647) antibody detecting the VHH polypeptides. Binding of the detection antibody to FcRn on transfected cells (citrine positive) was measured after a final wash using an iQue Screener (Sartorius).

[17] = target: T5, human FcRn on primary human monocytes …; assay: flow cytometry, fixed and permeabilized human PBMC, gated monocytes, pH 7.4, AF647 detection antibody
Experimental: as §3

[18] = target: T6, human FcRn extracellular domain (ECD) …; assay: flow cytometry, CHO cells transiently expressing human FcRn ECD-TM-citrine and B2M, pH 6, AF647 detection antibody; remark: listed apart in the source
Experimental: as §4, §5

[19] = target: T6, human FcRn extracellular domain (ECD) …; assay: flow cytometry, CHO cells transiently expressing human FcRn ECD-TM-citrine and B2M, pH 7.4, AF647 detection antibody
Experimental: as §4, §5

[20] = target: T3, Human serum albumin (HSA); assay: ELISA on coated human albumin, pH 5.5, HRP detection antibody, A450; remark: listed apart in the source
Experimental: as §2

[21] = target: T6, human FcRn extracellular domain (ECD) …; assay: flow cytometry, CHO cells transiently expressing human FcRn ECD-TM-citrine and B2M, pH 7.4, AF647 detection antibody; remark: listed apart in the source
Experimental: as §4, §5

[22] = target: T3, Human serum albumin (HSA); assay: ELISA on coated human albumin, pH 7.4, HRP detection antibody, A450; remark: listed apart in the source
Experimental: as §2

[23] = target: T6, human FcRn extracellular domain (ECD) …; assay: flow cytometry, HEK 293 cells transiently expressing human FcRn ECD-TM-citrine and B2M, pH 6; blocked ligand: biotinylated human IgG at 1 µM, detected with streptavidin-AF647
Experimental: 50,000 transiently transfected HEK 293 cells were plated in 96-well plates and resuspended in 20 mM His, 150 mM NaCl, pH 6. Serial dilutions of test articles were prepared at 2× the final concentration in the buffer described above and added to the cell suspensions. Plates were incubated for 60 minutes at 4° C. […] Cells were then washed in the buffer described above and subsequently incubated for 30 minutes at 4° C. with a fluorescently labeled (AF647) streptavidin to detect IgG binding to FcRn. Binding of streptavidin to cells expressing FcRn (citrine positive) was measured after a final wash using an iQue Screener (Sartorius). The data were plotted and analyzed using GraphPad Prism analysis software.

[24] = target: T7, human FcRn/B2m heterodimer protein (human, UniProt P55899 24-297; P61769 21-119, limits assumed); assay: ELISA on coated human FcRn/B2m heterodimer, pH 7.4, HRP detection antibody, A450
T7 construct: also called FcRn (ELISA)
T7 sequence (P55899 24-297 limits assumed, chain 1 of 2): as the sequence (chain, as listed by the source limits assumed, chain 1 of 2) above
T7 sequence (P61769 21-119 limits assumed, chain 2 of 2): as the sequence (P16213 21-119 limits assumed, chain 2 of 2) above
Experimental: 96-well ELISA plates were coated with human FcRn/B2m heterodimer protein in PBS overnight at 4° C., washed with PBST and then blocked with 3% BSA in PBST for 1 h at RT. Serial dilutions of test articles were prepared in PBST pH 7.4 and added to the plates. Plates were incubated for 1 h at room temperature. After the incubation cells were washed in the PBST and then incubated for 1 h at room temperature with a horse radish peroxidase (HRP)-conjugated antibody detecting the polypeptides. Plates were washed with PBS-T followed by addition of TMB substrate and color allowed to develop. TMB substrate was stopped with an equal volume of stop solution (1M H₂SO₄). Absorbance at 450 nm was measured with a 96 well plate reader (Emax, Molecular Devices). All data were plotted and analyzed using GraphPad Prism analysis software.

B1: 4A01v6 (Fc fusion, not shown: a dimerising Fc or GST; small tags and cut ends)
VHH: EVQLVESGGGEVQPGGSLRLSCAASGFAFSTSGMVWVRQAPGKGLEWVSTISDSGRIIRYAESVKGRFTISRDNAKNTLYLQMNSLRAEDTAVYYCATYRAGSRIGSYEDYYRGQGTLVTVKP
notes: also called Hz4A01v6
**Q.** Which results are given for B1?
**A.** Bmax [1]: 1.09 A650; Kd [1]: 0.206 nM; Bmax (Rat serum albumin (RSA) [2]): 1.02 A650; Kd (Rat serum albumin (RSA) [2]): 0.273 nM; Bmax [3]: 0.94 A650; Kd [3]: 0.332 nM; Bmax [4]: 0.961 A650; Kd [4]: 0.225 nM

B2: cx5009 (hz4A01v51-NNT-hFc) (Fc fusion)
chain: EVQLVESGGGEVQPGGSLRLSCAASGFTFSTSGMVWVRQAPGKGLEWVSTISDDARITVYAESVKGRFTISRDNAKNTVYLQMNSLRAEDTAVYYCATYRAGSRIGSYEDYYRGQGTLVTVKPGGGGPSVFLFPPKPKDTLMISRTPEVTCVVVDVSHEDPEVKFNWYVDGVEVHNAKTKPREEQYNSTYRVVSVLTVLHQDWLNGKEYKCKVSNKALPAPIEKTISKAKGQPREPQVYTLPPSRDELTKNQVNLTCLVKGFYPSDIAVEWESNGQPENNYKTTPPVLDSDGSFFLNSTLTVDKSRWQQGNVFSCSVMHEALHNHYTQKSLSLSPGSGGGGSGGGGS
notes: also called humanized hz4A01v51; hx4A01v51
**Q.** Which results are given for B2?
**A.** Kd [5]: < 0.3 nM; maximal binding [5]: > 90%; Kd [6]: < 0.3 nM; maximal binding [6]: > 90%; Kd [7]: < 0.3 nM; maximal binding [7]: > 90%; Kd (Rat serum albumin (RSA) [8]): < 0.3 nM; maximal binding (Rat serum albumin (RSA) [8]): > 90%; Kd [9]: 0.195 nM; Kd [10]: 0.189 nM; Kd [11]: 0.207 nM; Kd (Rat serum albumin (RSA) [12]): 0.234 nM

B3: cx11558 (B10a.v2.1 VHH x hz4A01v51 VHH) (bispecific antibody)
chain: EVQLLESGGGEVQPGGSLRLSCAASGSIANVDLMAWHRQAPGKQREPIAVINDAGSTYYAESVKGRFTISRDNAKNTLYLQMNSLRAEDTAVYYCNTATWRGGERYADWGQGTLVTVKPGSGGGSEVQLVESGGGEVQPGGSLRLSCAASGFTFSTSGMVWVRQAPGKGLEWVSTISDDARITVYAESVKGRFTISRDNAKNTVYLQMNSLRAEDTAVYYCATYRAGSRIGSYEDYYRGQGTLVTVKPGG
**Q.** What does the source list for B3?
**A.** EC50 (read off the curve) [13]: ~0.06 nM; EC50 (read off the curve) [14]: ~5 nM; EC50 (read off the curve) [15]: ~0.3 nM; EC50 (read off the curve) [16]: ~0.4 nM; EC50 (read off the curve) [17]: ~4 nM; EC50 (read off the curve) [18]: ~0.4 nM; EC50 (read off the curve) [19]: ~0.5 nM; EC50 (read off the curve) [20]: ~0.06 nM; EC50 (read off the curve) [21]: ~0.5 nM

B4: cx12003 (bispecific antibody)
single polypeptide, format of FIG. 5(i): B3 chain with E1Q, K118E, E126Q, V130L, K247E
notes: anti-FcRn VHH linked to anti-albumin VHH
**Q.** With B4 as the binder, how does the “EC50 (read off the curve)” value [22] read?
**A.** The value was ~0.4 nM.

**Q.** And the “EC50 (read off the curve)” value [18]?
**A.** Its value is ~0.5 nM.

**Q.** And the “EC50 (read off the curve)” value [19]?
**A.** The value was ~0.3 nM.

B5: cx11383 (B10a.v1 VHH x hz4A01v51 VHH) (bispecific antibody)
chain: B3 chain with A23T, L33M, A54G, Y58S, E61D, N83S
**Q.** How did the “IC50 (read off the curve)” value [23] turn out when B5 was run?
**A.** Its value is ~7 nM.

**Q.** Does B5 bind [24]?
**A.** Result: binds

B6: cx12008 (bispecific antibody)
single polypeptide, format of FIG. 5(i): B3 chain with K118R, K247R
notes: as for B4
**Q.** With B6 as the binder, how does the “EC50 (read off the curve)” value [22] read?
**A.** The value was ~0.4 nM.

**Q.** What about the “EC50 (read off the curve)” value [18] of the same binder?
**A.** The value was ~0.4 nM.

**Q.** And the “EC50 (read off the curve)” value [19]?
**A.** Its value is ~0.7 nM.

**Q.** What about the “EC50 (read off the curve)” value [20] of the same binder?
**A.** Its value is ~0.4 nM.

B7: cx12006 (bispecific antibody)
single polypeptide, format of FIG. 5(i): B3 chain with E1Q, E11K, K118E, E126Q, V130L, E136K, K247E
notes: as for B4
**Q.** What does the source list for B7?
**A.** EC50 (read off the curve) [22]: ~0.4 nM; EC50 (read off the curve) [18]: ~0.4 nM; EC50 (read off the curve) [19]: ~0.3 nM; EC50 (read off the curve) [20]: ~0.4 nM

B8: cx12007 (B10a.v2.4 VHH x hz4A01v51.12 VHH) (bispecific antibody)
chain: B3 chain with E11K, K118E, V130L, E136K, K247E
**Q.** What does the source list for B8?
**A.** EC50 (read off the curve) [22]: ~0.4 nM; EC50 (read off the curve) [18]: ~0.4 nM; EC50 (read off the curve) [19]: ~0.3 nM; EC50 (read off the curve) [20]: ~0.4 nM

B9: cx12032 (B10a.v2.1 VHH x hz4A01v51 VHH) (bispecific antibody)
chain: EVQLLESGGGEVQPGGSLRLSCAASGSIANVDLMAWHRQAPGKQREPIAVINDAGSTYYAESVKGRFTISRDNAKNTLYLQMNSLRAEDTAVYYCNTATWRGGERYADWGQGTLVTVKPEVQLVESGGGEVQPGGSLRLSCAASGFTFSTSGMVWVRQAPGKGLEWVSTISDDARITVYAESVKGRFTISRDNAKNTVYLQMNSLRAEDTAVYYCATYRAGSRIGSYEDYYRGQGTLVTVKPGG
**Q.** With B9 as the binder, how does the “EC50 (read off the curve)” value [15] read?
**A.** Its value is ~0.3 nM.

**Q.** What about the “EC50 (read off the curve)” value [16] of the same binder?
**A.** Its value is ~0.6 nM.

**Q.** What about the “EC50 (read off the curve)” value [21] of the same binder?
**A.** Its value is ~0.5 nM.

B10: cx11385 (B10a.v1 VHH x B10a.v1 VHH x hz4A01v51 VHH) (bispecific antibody)
chain: EVQLLESGGGEVQPGGSLRLSCTASGSIANVDMMAWHRQAPGKQREPIAVINDGGSTSYADSVKGRFTISRDNAKNTLYLQMSSLRAEDTAVYYCNTATWRGGERYADWGQGTLVTVKPGSGGGSEVQLLESGGGEVQPGGSLRLSCTASGSIANVDMMAWHRQAPGKQREPIAVINDGGSTSYADSVKGRFTISRDNAKNTLYLQMSSLRAEDTAVYYCNTATWRGGERYADWGQGTLVTVKPGSGGGSEVQLVESGGGEVQPGGSLRLSCAASGFTFSTSGMVWVRQAPGKGLEWVSTISDDARITVYAESVKGRFTISRDNAKNTVYLQMNSLRAEDTAVYYCATYRAGSRIGSYEDYYRGQGTLVTVKPGG
**Q.** How did the “IC50 (read off the curve)” value [23] turn out when B10 was run?
**A.** The value was ~3 nM.

**Q.** And the “EC50 (read off the curve)” value [24]?
**A.** Its value is ~0.07 nM.

Source: US20250353911A1 (INHIBRX BIOSCIENCES, published 2025)
